These are literature values, as cited in PMC10243098.

The data set deals with histone H4 N-terminal 20-mer peptide-CoA bisubstrate inhibitor 1-20 (Homo sapiens) (UniProt P62805).

HAT1, sequence (O14929 2-419): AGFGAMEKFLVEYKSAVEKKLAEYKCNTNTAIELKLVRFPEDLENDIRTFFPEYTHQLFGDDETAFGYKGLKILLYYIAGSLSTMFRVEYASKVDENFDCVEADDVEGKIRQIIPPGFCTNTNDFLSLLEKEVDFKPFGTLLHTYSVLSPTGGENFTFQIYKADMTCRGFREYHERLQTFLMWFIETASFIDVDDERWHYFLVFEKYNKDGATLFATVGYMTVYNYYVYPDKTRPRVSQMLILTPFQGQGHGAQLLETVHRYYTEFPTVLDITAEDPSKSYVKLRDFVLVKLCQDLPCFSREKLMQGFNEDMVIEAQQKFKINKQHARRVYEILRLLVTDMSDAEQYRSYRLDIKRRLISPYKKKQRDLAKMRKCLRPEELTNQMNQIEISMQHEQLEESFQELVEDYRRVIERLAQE

With HAT1 (from UniProt O14929), the Ki is 1 nM.
